According to paper PMC7230020:

Biological target: activated RecA (RecA*), E. coli RecA polymerised on ssDNA with ATPγS (E. coli) (UniProt P0A7G6)
Assay: fluorescence polarisation

Sequence of activated RecA (RecA*), E. coli RecA polymerised on ssDNA with ATPγS (E. coli) (P0A7G6 whole entry): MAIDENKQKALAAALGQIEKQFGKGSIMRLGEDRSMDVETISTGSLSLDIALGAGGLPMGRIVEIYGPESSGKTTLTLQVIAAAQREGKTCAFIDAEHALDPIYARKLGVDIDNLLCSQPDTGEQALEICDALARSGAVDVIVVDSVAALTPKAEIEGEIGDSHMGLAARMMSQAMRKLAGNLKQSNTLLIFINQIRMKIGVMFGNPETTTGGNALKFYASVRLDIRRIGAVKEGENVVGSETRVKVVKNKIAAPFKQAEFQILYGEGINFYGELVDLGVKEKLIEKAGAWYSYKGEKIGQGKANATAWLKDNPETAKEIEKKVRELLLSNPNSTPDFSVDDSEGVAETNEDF

fold decrease in apparent affinity for RecA* against LexA-S119A | Substance
> 10 fold | LexA G80P, full-length cleavage loop variant (from UniProt P0A7C2 1-202) (natural protein)
> 10 fold | LexA V82M, full-length cleavage loop variant (from UniProt P0A7C2 1-202) (natural protein)
